± gives the standard deviation.
Test: protein stability index of a GFP-peptide fusion (GPS, HEK-293T) (PSI 1-6); higher = more stable
Settings: c terminus: a fixed tail appended
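Also: 24-mer peptide tiles fused after GFP, lentivirally expressed, FACS-sorted into six equal bins by GFP/DsRed ratio, decoded by Illumina sequencing, PSI is the read-weighted mean bin number.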

| Sequence | protein stability index (treatment: DMSO) | protein stability index (treatment: MLN4924 1 uM, 8 h) |
| --- | --- | --- |
| ADEGSRNSRFQMLFTSFQEPPCEG [NETO1] | 3.98 ± 0.094 | 4.17 ± 0.22 |
| GEAMLANFKPRGYSECIVTVGGEE [GAN] | 4.38 ± 0.42 | 4.18 ± 0.41 |
| FGTIISGIQLLIVEYKDIASIHWD [SLC35F2] | 3.15 ± 0.29 | 3 ± 0.34 |
| QMPKFDLGPLLSEPLVLYNQNLSN [MYOZ1] | 3.15 ± 0.1 | 3 ± 0.11 |
| QGDPKGEMAATPAGFAQLTHLLMG [HDAC6] | 3.1 ± 0.16 | 3.06 ± 0.14 |
| FLQEEAIDRNYVPGKSLAVSCPGW [SNX12] | 2.73 ± 0.3 | 3.2 ± 0.2 |
| TYVDKKRDLLGALKHWRRAMELRH [FEM1A] | 2.28 ± 0.26 | 2.31 ± 0.11 |
| PVCSALLDPVLQAPGTGPAQTELL [FANCE] | 4.2 ± 0.12 | 4.37 ± 0.12 |
| SLKAKVSDNMSHLMVDFAQERQML [FSD1] | 3.33 ± 0.22 | 3.31 ± 0.31 |
| ACLVSCFQQLMVETCSCGYYLHPL [SCNN1D] | 2.91 ± 0.17 | 3.21 ± 0.19 |
| EGYTSFWNDCISSGLRGGILIELA [GOLPH3L] | 3.14 ± 0.74 | 2.49 ± 0.52 |
| HLEIDDMYTPAYGDFDFDEVKFPN [MYORG] | 4.49 ± 0.12 | 4.26 ± 0.19 |
| PTPTSLEVSSPPDTTEEVDHKPKL [PDZK1] | 5.51 ± 0.18 | 5.54 ± 0.38 |
| KNLLHAEFLRVQEERILHQQVKCI [VPS39] | 2.58 ± 0.16 | 2.71 ± 0.26 |
| YPHCTGISQQDPESDSQGQGNGLF [ZC2HC1C] | 3.82 ± 0.23 | 4.43 ± 0.48 |
| LDKELRAMLREKFPEFCSSPSPPV [INTS3] | 3.22 ± 0.31 | 3.42 ± 0.31 |
| RVPQTWSKRLYGVYDNEKKLQLQL [PLD5] | 2.39 ± 0.32 | 2.31 ± 0.28 |
| MAQPLCIRALLNLHTDVGSVRMRR [NEK8] | 2.48 ± 0.16 | 2.58 ± 0.099 |

| Sequence | protein stability index (treatment: DMSO) | protein stability index (treatment: MLN4924 1 uM, 8 h) |
| --- | --- | --- |
| LQSFEDLASISTYGFRGEALASIS [MLH1] | 2.78 ± 0.16 | 2.71 ± 0.3 |
| LSFAHANCTLIISYQKPKEVVVAE [DPCD] | 2.69 ± 0.84 | 2.79 ± 0.73 |
| KTVDKHSDEYKIRRERNNIAVRKS [CEBPB] | 4.59 ± 0.17 | 4.79 ± 0.39 |
| MDSGTRPVGSCCSSPAGLSREYKL [RIT1] | 3.35 ± 0.18 | 3.3 ± 0.16 |
| SEVSCKKRDDYLEWPEYFMAVAFL [DCTD] | 2.15 ± 0.48 | 2.16 ± 0.26 |
| LKKIKEKDKENKFLCVLMSDWFNF [CLK3] | 2.14 ± 0.36 | 2.24 ± 0.24 |
| MPSWASARDRQPSDFKTDKEGGQA [ELOA2] | 5.14 ± 0.43 | 5.2 ± 0.22 |
| DLAKLVDQQNPTLGETPENSNLEE [ZNF449] | 5.47 ± 0.16 | 5.32 ± 0.24 |
| WALGVCNNSWIRKNSTMVNSEDIF [TRIM43] | 2.03 ± 0.52 | 2.12 ± 0.31 |
| RNSKASAYCLDQGAEDGDRAILYP [GALNT9] | 4.32 ± 0.3 | 4.4 ± 0.2 |
| ALGDIREVQKLVESGVDVNSQNEV [ANKRD40] | 5.28 ± 0.3 | 5.24 ± 0.29 |
| RRGELRHITKLKPWSLFDVLVEKY [SRPK2] | 2.4 ± 0.53 | 2.12 ± 0.057 |
| SQESALGNTVPAVEPGTPPLDILA [DNAAF3] | 5.17 ± 0.15 | 5.14 ± 0.12 |
| LRESIASYLSLTSEDNTSFDRKKK [SLA] | 3.9 ± 0.16 | 3.81 ± 0.15 |
| PQLSPGSGTPQAGTPSPSRSRDSN [RTN2] | 5.2 ± 0.14 | 5.27 ± 0.18 |
| EPQTEHQQESESEIDSVPKTQSEL [MIA2] | 5.46 ± 0.13 | 5.59 ± 0.21 |
| LGQILVSVAGWSLFSLNVISLTCV [SLC19A2] | 3.3 ± 0.26 | 3.21 ± 0.47 |
| SGCDKEALLTGGGSENRNHRLLNM [RNF180] | 3.58 ± 0.28 | 3.86 ± 0.29 |

Source: the supplement of paper PMC10567573
